In paper PMC3598077 (EMBO Molecular Medicine, 2013):

Target: T1, Recombinant His-RAD51 fusion protein (UniProt Q06609 1-339)
T1 sequence: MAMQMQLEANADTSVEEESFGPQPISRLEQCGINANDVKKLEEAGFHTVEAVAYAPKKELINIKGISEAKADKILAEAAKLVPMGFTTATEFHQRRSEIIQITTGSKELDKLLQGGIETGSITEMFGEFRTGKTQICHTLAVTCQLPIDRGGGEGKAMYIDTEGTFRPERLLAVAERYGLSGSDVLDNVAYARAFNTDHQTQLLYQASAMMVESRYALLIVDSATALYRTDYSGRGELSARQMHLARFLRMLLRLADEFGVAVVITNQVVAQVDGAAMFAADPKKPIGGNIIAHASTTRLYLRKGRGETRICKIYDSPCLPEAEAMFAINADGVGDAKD
Experiment: SPR

binding result: binds
B1: Recombinant GST-BRC fusion protein (containing BRCA2-1005-1040, fused with GST at its N-terminal) (domain or fragment)
chain: FGGSFRTASNKEIKLSEHNIKKSKMFFKDIEEQYPT
